Experiment [1] addresses T1, mouse c-CDCP1 (recombinant cleaved mouse CDCP1) (mouse, UniProt Q5U462 30-368; Q5U462 369-666, limits assumed).
T1 construct: Mouse antigens made were c-CDCP1-Fc (Cut 1) and (Cut 2); also called mouse cleaved CDCP1; cleaved mCDCP1
T1 sequence 1: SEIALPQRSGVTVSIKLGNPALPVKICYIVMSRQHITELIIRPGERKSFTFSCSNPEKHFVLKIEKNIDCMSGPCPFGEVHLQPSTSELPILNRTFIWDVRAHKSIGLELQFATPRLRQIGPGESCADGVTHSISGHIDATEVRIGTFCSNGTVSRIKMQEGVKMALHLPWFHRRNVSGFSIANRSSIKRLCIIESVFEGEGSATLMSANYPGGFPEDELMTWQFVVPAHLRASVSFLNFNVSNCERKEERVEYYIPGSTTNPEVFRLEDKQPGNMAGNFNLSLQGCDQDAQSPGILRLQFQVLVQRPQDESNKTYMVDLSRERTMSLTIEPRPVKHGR
T1 sequence 2: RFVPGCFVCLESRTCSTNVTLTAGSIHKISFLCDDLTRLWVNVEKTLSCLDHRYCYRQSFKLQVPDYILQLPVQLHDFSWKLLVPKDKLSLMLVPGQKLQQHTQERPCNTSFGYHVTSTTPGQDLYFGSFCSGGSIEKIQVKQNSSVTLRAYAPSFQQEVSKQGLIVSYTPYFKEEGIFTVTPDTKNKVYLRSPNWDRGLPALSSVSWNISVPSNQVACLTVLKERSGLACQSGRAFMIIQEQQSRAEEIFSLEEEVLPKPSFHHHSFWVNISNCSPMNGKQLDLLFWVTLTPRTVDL
Put plainly: BLI (Octet), mouse c-CDCP1-Fc on the sensor, IgG CL03 as analyte.

The target in experiment [2] is T2, cleaved human CDCP1 on the cell surface (endogenous, PDAC cells) (human) (UniProt Q9H5V8).
T2 sequence 1: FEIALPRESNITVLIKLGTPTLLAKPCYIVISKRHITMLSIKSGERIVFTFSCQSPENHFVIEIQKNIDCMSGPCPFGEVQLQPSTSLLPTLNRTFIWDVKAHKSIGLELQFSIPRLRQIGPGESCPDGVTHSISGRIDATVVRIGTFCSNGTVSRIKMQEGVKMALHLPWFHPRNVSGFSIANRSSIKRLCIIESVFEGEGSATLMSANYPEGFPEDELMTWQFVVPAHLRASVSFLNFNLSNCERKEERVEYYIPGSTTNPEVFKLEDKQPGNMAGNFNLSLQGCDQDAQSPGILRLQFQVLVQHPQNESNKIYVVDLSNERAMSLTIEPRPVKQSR
T2 sequence 2: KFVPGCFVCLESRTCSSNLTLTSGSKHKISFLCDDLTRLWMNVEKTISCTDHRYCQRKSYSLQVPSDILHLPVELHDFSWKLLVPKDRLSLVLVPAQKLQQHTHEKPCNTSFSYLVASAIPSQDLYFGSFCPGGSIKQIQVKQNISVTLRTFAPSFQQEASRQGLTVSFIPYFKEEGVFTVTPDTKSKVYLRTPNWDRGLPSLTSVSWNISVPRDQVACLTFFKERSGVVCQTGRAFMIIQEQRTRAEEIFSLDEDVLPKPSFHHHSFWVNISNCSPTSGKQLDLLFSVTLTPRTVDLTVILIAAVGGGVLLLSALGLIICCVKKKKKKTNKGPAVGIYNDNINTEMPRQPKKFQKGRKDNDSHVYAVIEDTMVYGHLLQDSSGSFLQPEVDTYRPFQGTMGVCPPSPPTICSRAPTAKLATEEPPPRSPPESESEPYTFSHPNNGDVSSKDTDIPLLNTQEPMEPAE
Put plainly: dose-response flow cytometry on PL5 cells; PL5 cells.

Experiment [3] deals with T3, His-TEV-CUB1 (human, UniProt Q9H5V8 30-367).
T3 construct: also called CUB1 (His-TEV-CUB1, soluble NTF); not shown: His tag and TEV site
T3 sequence: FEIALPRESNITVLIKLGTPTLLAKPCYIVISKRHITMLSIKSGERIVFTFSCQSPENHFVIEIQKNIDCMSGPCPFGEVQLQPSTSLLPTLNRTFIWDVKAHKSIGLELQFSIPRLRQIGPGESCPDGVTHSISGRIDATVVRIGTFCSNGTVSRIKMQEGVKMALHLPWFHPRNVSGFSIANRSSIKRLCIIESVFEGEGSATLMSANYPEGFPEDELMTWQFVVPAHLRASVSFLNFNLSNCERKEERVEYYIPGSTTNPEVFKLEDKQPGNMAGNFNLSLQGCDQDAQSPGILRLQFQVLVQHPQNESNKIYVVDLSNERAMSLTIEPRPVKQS
In words: sandwich ELISA, CL03 as capture antibody, antigen titrated (ng/mL), anti-CDCP1 polyclonal antibody for detection. How it is done: (§1) CUB1 N-terminal fragment (NTF) is present only in human serum. Since CL03 binds to an epitope on CUB1 domain that is exposed upon proteolysis, CUB1 (NTF) would serve as a sink to CL03 that decreases the viable concentration of CL03 on tumor site if it binds to CUB1 only in human serum. To further investigate the binding mechanism of CL03, an ELISA experiment was performed in which the binding of CL03 to CUB1 in human serum was evaluated. ELISA assays were performed as generally described in Example 1. Briefly, either IgG CL03 or 4A06 was used as the capture antibody; the target antigens evaluated were as presented in Table 9 below; and an anti-CDCP1 polyclonal Ab was used as the detection antibody (R&D: Cat. #AF2666).

Experiment [4] concerns the target T4, His-CUB1 (human, UniProt Q9H5V8 30-367, limits assumed).
T4 construct: also called CUB1 (His-CUB1, soluble NTF); not shown: His tag
T4 sequence: T3 sequence
The description is as above. How it is done: as §1

B1: CL03 IgG (antibody, V domains shown)
VH: EVQLVESGGGLVQPGGSLRLSCAASGFNFSSYSIHWVRQAPGKGLEWVASIYPYSGSTYYADSVKGRFTISADTSKNTAYLQMNSLRAEDTAVYYCARQSHSYYSHTWWVSYGMDYWGQGTLVTVSS
VL: DIQMTQSPSSLSASVGDRVTITCRASQSVSSAVAWYQQKPGKAPKLLIYSASSLYSGVPSRFSGSRSGTDFTLTISSLQPEDFATYYCQQSGQRPITFGQGTKVEIKR
notes: also called IgG CL03
Regarding B1, the binding result in experiment [1] is listed as “no binding (tested: not printed)”; in experiment [3], “no binding (tested: 1000 ng/mL)”; in experiment [4], “no binding (tested: 1000 ng/mL)”. The EC50 in experiment [2] was 14.1 nM.

Values taken from US20240376224A1 (University of California, published 2024).
